From patent US20260265390A1 (SHANDONG SIMCERE BIOPHARMACEUTICAL, published 2026)
Where a chain is given by its changes, count along the chain named. Several values for one entry are separate records, joined by “and”; a condition that tells them apart may be missing. Identical values can stand only once.

Key:
[1] = target: T1, human GPRC5D, expressed on cells (human, UniProt Q9NZD1 1-345); assay: FACS, CHOK1-human GPRC5D cells
T1 construct: whole, on cells; Overexpressed on CHOK1 cells; also called CHOK1-human GPRC5D cells
T1 sequence (Q9NZD1 whole entry): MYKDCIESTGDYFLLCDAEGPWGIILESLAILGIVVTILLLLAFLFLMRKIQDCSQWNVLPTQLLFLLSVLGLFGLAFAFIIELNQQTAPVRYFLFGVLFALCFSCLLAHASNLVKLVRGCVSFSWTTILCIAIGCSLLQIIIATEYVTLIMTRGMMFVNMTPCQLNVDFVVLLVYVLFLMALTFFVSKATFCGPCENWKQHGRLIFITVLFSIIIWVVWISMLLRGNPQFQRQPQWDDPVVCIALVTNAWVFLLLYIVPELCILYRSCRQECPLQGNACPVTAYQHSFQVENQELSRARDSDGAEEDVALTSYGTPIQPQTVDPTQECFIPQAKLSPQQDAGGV
Experimental: (§1) Flp-inCHO-human BCMA cells and CHOK1-human GPRC5D cells were scale-up cultured in T-75 cell culture flask to the logarithmic growth phase, respectively, and the cells were pipetted to obtain a single cell suspension. After the cells were counted and centrifuged, the cell precipitate was resuspended to 2×10⁶ cells per milliliter with a FACS buffer (PBS+2% fetal bovine serum). The suspension was added to a 96-well FACS reaction plate at 50 μl/well. 8 concentrations of the anti-BCMA-GPRC5D-CD3 antibodies or control antibodies were added at 50 μl/well, wherein gradient dilution was performed at a dilution ratio of 5 from a concentration of 100 nM. The cells were incubated at 4° C. for 1 h. The obtained mixture was centrifuged and washed 3 times with a PBS buffer. […] The obtained mixture was centrifuged and washed 3 times with a PBS buffer. 100 μl of the mixture was taken for detection and result analysis by FACS (FACS Canto™, purchased from BD Company). Data analysis was performed by software (FlowJo) to obtain the mean fluorescence intensity (MFI) of the cells. Then, a software (GraphPad Prism8) was used for analysis, data fitting and EC50 calculation.

[2] = target: T2, human BCMA (B cell maturation antigen), expressed on cells (human, UniProt Q02223 1-184); assay: FACS, Flp-inCHO-human BCMA cells
T2 construct: whole, on cells; Overexpressed on Flp-in CHO cells; also called Flp-inCHO-human BCMA cells; CD269
T2 sequence (looked up): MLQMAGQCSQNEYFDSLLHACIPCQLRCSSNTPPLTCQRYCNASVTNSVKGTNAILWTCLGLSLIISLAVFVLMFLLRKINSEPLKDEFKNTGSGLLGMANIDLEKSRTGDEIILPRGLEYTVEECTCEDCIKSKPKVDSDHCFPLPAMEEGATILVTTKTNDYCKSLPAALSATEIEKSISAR
Experimental: as §1

[3] = target: T3, monkey CD3, on activated monkey PBMC (monkey); assay: FACS, activated monkey PBMC
T3 construct: whole, on cells
T3 sequence (Q95LI5 22-198): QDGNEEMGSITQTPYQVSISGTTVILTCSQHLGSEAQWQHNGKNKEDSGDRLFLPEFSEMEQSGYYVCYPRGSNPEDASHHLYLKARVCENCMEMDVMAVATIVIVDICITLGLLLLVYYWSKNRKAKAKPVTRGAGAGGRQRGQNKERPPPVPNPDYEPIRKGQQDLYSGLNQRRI

B1: Tri-65 anti-BCMA-GPRC5D-CD3 trispecific antibody (other)
VHH: EVQLVESGGGLVQPGGSLRLSCAASESISSIHIMAWYRQAPGKQRELVAGIRNDGSTVYVDSVKGRFTISRDNAKNSLYLQMNSLRAEDTAVYYCNADQGFGSYSEWERRSRWGQGTTVTVSS
VH 1: EVQLVQSGAEVKKPGASVKVSCKTSGYIFTNFGITWVRQAPGQRLEWMGENYPRRINTYYNEKFKGRVTITADKSASTAYMELSSLRSEDTAVYYCSRKDIFGLSYALDYWGQGTTVTVSS
VL 1: DIQMTQSPSSLSASVGDRVTITCKASQNVGTNVAWYQHKPGKSPKALIYSASYQYSGVPSRFSGSGSGTDFTLTISSLQPEDVATYICQQYKNYPYTFGGGTKVEIK
VH 2: EVQLVESGGGVVQPGRSLRLSCAASGFTFTDYYMSWVRQAPGKGLEWVAMSRNKAKGHTIEYSSSVKGRFTISRDNSKNTLYLQMNSLRAEDTAVYYCARDTYESYDGYFDVWGQGTTVTVSS
VL 2: DIVMTQSPDSLAVSLGERATINCKSSQSLFNSRSRKNYLAWYQQKPGQTPKLLIYWASIRESGVPDRFSGSGSGTDFTLTISSLQAEDVAVYYCKQSYYLYTFGQGTKLEIK
chain 1: ESKYGPPCPPCPAPEAAGGPSVFLFPPKPKDTLMISRTPEVTCVVVDVSQEDPEVQFNWYVDGVEVHNAKTKPREEQFNSTYRVVSVLTVLHQDWLNGKEYKCKVSNKGLPSSIEKTISKAKGQPREPQVYTLPPSQEEMTKNQVSLWCLVKGFYPSDIAVEWESNGQPENNYKTTPPVLDSDGSFFLYSRLTVDKSRWQEGNVFSCSVMHEALHNHYTQKSLSLSLG
chain 2: B1 chain 1 with W148S, L150A, Y189V
notes: Trispecific antibody; Asymmetric (purification method C)
EC50 [1]: 1.66 nM
EC50 [2]: 2.54 nM

B2: Tri-66 anti-BCMA-GPRC5D-CD3 trispecific antibody (other)
VHH: B1 VHH
VH 1: B1 VH 1
VL 1: B1 VL 1
VH 2: B1 VH 2
VL 2: B1 VL 2
chain 1: B1 chain 1
chain 2: B1 chain 1 with W148S, L150A, Y189V
notes: as for B1
EC50 [1]: 1.53 nM
EC50 [2]: 1.09 nM

B3: Tri-38 anti-BCMA-GPRC5D-CD3 trispecific antibody (other)
VHH: EVQLVESGGGLVQPGGSLRLSCSASGFTLDYYMIGWFRQAPGKEREGLSSISPADGSTYYADSVKGRFTISRDSSKNTVYLQMNSLRAEDTAVYYCAAGNEATISWGFGPWEYDYWGQGTMVTVSS
VH 1: EVQLVQSGAEVKKPGSSVKVSCKASGYTFTSYGISWVRQAPGQGLEWMGEIYPRSGNTYYNEKFKGRVTLTADKSTSTAYMELSSLRSEDTAVYYCARGRAYGRNYPMDYWGQGTTVTVSS
VL 1: EIVLTQSPATLSLSPGERATLSCRASQSIGTSIHWYQQKPGQSPRLLIKYASESISGIPARFSGSGSGTDFTLTISSLEPEDFAVYYCQQSNSWPYTFGGGTKVEIK
VH 2: B1 VH 2
VL 2: B1 VL 2
chain 1: EPKSSDKTHTCPPCPAPEAAGGPSVFLFPPKPKDTLMISRTPEVTCVVVDVSHEDPEVKFNWYVDGVEVHNAKTKPREEQYNSTYRVVSVLTVLHQDWLNGKEYKCKVSNKALPAPIEKTISKAKGQPREPQVYTLPPSREEMTKNQVSLWCLVKGFYPSDIAVEWESNGQPENNYKTTPPVLDSDGSFFLYSKLTVDKSRWQQGNVFSCSVMHEALHNHYTQKSLSLSPG
chain 2: B3 chain 1 with W151S, L153A, Y192V
notes: Trispecific antibody; Asymmetric (purification method B)
EC50 [1]: 2.06 nM
EC50 [2]: 4.43 nM

B4: Tri-41 anti-BCMA-GPRC5D-CD3 trispecific antibody (other)
VHH: B3 VHH
VH 1: B3 VH 1
VL 1: B3 VL 1
VH 2: B1 VH 2
VL 2: B1 VL 2
chain 1: B3 chain 1
chain 2: B3 chain 1 with W151S, L153A, Y192V
notes: as for B3
EC50 [1]: 4.3 nM
EC50 [2]: 1.52 nM

B5: JNJ7564 (bispecific antibody targeting GPRC5D and CD3, Johnson & Johnson, WO 2019220368 A1) (bispecific antibody, human IgG4 S228P, kappa, lambda, F234A L235A)
heavy 1: not shown
light 1: DIQMTQSPSSLSASVGDRVTITCKASQNVATHVGWYQQKPGKAPKRLIYSASYRYSGVPSRFSGSGSGTEFTLTISNLQPEDFATYYCQQYNRYPYTFGQGTKLEIKRTVAAPSVFIFPPSDEQLKSGTASVVCLLNNFYPREAKVQWKVDNALQSGNSQESVTEQDSKDSTYSLSSTLTLSKADYEKHKVYACEVTHQGLSSPVTKSFNRGEC
heavy 2: EVQLVESGGGLVQPGGSLRLSCAASGFTFNTYAMNWVRQAPGKGLEWVARIRSKYNNYATYYAASVKGRFTISRDDSKNSLYLQMNSLKTEDTAVYYCARHGNFGNSYVSWFAYWGQGTLVTVSSASTKGPSVFPLAPCSRSTSESTAALGCLVKDYFPEPVTVSWNSGALTSGVHTFPAVLQSSGLYSLSSVVTVPSSSLGTKTYTCNVDHKPSNTKVDKRVESKYGPPCPPCPAPEAAGGPSVFLFPPKPKDTLMISRTPEVTCVVVDVSQEDPEVQFNWYVDGVEVHNAKTKPREEQFNSTYRVVSVLTVLHQDWLNGKEYKCKVSNKGLPSSIEKTISKAKGQPREPQVYTLPPSQEEMTKNQVSLTCLVKGFYPSDIAVEWESNGQPENNYKTTPPVLDSDGSFLLYSKLTVDKSRWQEGNVFSCSVMHEALHNHYTQKSLSLSLGK
light 2: QTVVTQEPSLTVSPGGTVTLTCRSSTGAVTTSNYANWVQQKPGQAPRGLIGGTNKRAPGTPARFSGSLLGGKAALTLSGVQPEDEAEYYCALWYSNLWVFGGGTKLTVLGQPKAAPSVTLFPPSSEELQANKATLVCLISDFYPGAVTVAWKADSSPVKAGVETTTPSKQSNNKYAASSYLSLTPEQWKSHRSYSCQVTHEGSTVEKTVAPTECS
notes: Positive control, made by reduction and reoxidation of the two monospecific antibodies
EC50 [3]: 5.79 nM and 5.72 nM

B6: REGN5459 (bispecific antibody targeting BCMA and CD3, Regeneron, WO 2020018820 A1) (bispecific antibody, human IgG4 S228P, kappa)
heavy 1: EVQLVESGGGLVQPGGSLRLSCAASGFTFSNFWMTWVRQAPGKGLEWVANMNQDGSEKYYVDSVKGRFTISRDNAKSSLYLQMNSLRAEDTAVYYCARDREYCISTSCYDDFDYWGQGTLVTVSSASTKGPSVFPLAPCSRSTSESTAALGCLVKDYFPEPVTVSWNSGALTSGVHTFPAVLQSSGLYSLSSVVTVPSSSLGTKTYTCNVDHKPSNTKVDKRVESKYGPPCPPCPAPPVAGPSVFLFPPKPKDTLMISRTPEVTCVVVDVSQEDPEVQFNWYVDGVEVHNAKTKPREEQFNSTYRVVSVLTVLHQDWLNGKEYKCKVSNKGLPSSIEKTISKAKGQPREPQVYTLPPSQEEMTKNQVSLTCLVKGFYPSDIAVEWESNGQPENNYKTTPPVLDSDGSFFLYSRLTVDKSRWQEGNVFSCSVMHEALHNHYTQKSLSLSLGK
heavy 2: EVQLVESGGGLVQPGRSLRLSCAASGFTFDDYSMHWVRQAPGKGLEWVSGISWNSGSIGYADSVKGRFTISRDNAKNSLYLQMNSLRAEDTALYYCAKYGSGYGKFYYYGMDVWGQGTTVTVSSASTKGPSVFPLAPCSRSTSESTAALGCLVKDYFPEPVTVSWNSGALTSGVHTFPAVLQSSGLYSLSSVVTVPSSSLGTKTYTCNVDHKPSNTKVDKRVESKYGPPCPPCPAPPVAGPSVFLFPPKPKDTLMISRTPEVTCVVVDVSQEDPEVQFNWYVDGVEVHNAKTKPREEQFNSTYRVVSVLTVLHQDWLNGKEYKCKVSNKGLPSSIEKTISKAKGQPREPQVYTLPPSQEEMTKNQVSLTCLVKGFYPSDIAVEWESNGQPENNYKTTPPVLDSDGSFFLYSRLTVDKSRWQEGNVFSCSVMHEALHNRFTQKSLSLSLGK
light: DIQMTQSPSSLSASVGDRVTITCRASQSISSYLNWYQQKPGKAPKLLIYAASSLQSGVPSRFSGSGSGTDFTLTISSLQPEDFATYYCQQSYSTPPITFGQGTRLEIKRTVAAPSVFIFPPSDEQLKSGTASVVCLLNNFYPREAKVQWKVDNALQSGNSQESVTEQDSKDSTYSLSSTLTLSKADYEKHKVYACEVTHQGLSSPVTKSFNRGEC
notes: Positive control, expressed in Expi293F by the applicants; also called RGEN5459
EC50 [3]: 161 nM

B7: antiFITC×CD3-Hab01 (negative control antibody, prepared internally) (bispecific antibody, human IgG4 S228P, kappa, F234A L235A)
heavy: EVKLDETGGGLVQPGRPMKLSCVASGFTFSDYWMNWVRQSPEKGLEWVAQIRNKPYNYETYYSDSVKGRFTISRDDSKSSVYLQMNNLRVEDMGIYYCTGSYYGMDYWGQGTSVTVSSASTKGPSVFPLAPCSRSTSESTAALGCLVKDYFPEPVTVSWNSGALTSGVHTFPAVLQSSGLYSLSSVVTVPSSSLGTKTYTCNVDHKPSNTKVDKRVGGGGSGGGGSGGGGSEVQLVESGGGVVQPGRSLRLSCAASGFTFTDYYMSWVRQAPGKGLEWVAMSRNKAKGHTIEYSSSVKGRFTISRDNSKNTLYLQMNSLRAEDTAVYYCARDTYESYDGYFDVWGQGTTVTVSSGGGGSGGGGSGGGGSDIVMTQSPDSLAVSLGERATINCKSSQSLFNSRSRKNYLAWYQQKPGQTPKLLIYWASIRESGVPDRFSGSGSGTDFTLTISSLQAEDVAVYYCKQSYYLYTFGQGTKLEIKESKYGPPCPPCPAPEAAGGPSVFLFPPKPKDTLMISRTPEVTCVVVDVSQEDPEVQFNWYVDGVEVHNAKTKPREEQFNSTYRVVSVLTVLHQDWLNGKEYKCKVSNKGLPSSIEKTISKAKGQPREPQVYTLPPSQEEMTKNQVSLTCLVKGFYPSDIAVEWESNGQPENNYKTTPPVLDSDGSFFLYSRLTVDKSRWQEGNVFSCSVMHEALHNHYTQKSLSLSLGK
light: DVVMTQTPLSLPVSLGDQASISCRSSQSLVHSNGNTYLRWYLQKPGQSPKVLIYKVSNRFSGVPDRFSGSGSGTDFTLKISRVEAEDLGVYFCSQSTHVPWTFGGGTKLEIKRTVAAPSVFIFPPSDEQLKSGTASVVCLLNNFYPREAKVQWKVDNALQSGNSQESVTEQDSKDSTYSLSSTLTLSKADYEKHKVYACEVTHQGLSSPVTKSFNRGEC
notes: Negative control for the tumor antigens
EC50 [3]: 15.2 nM and 12.4 nM
